Experimental data published in paper PMC8660799, “Cryo-EM reveals unique structural features of the FhuCDB Escherichia coli ferrichrome importer” (Communications Biology, 2021).
Like-named read-outs stand apart in the source and are kept apart here.

Experiments:
[1] = biological target: BtuF (Escherichia coli) (UniProt P37028); settings: cited from earlier work
[2] = biological target: BtuF (Escherichia coli) (UniProt P37028); settings: cited from earlier work; remark: listed apart in the source
[3] = substrate: Nc1ncnc2c1ncn2[C@@H]1O[C@H](COP(=O)(O)OP(=O)(O)OP(=O)(O)O)[C@@H](O)[C@H]1O; experiment: ATPase assay in proteoliposomes, malachite green phosphate detection; type: biochemical, Escherichia coli; settings: MgCl2, 37 °C
[4] = biological target: T1, FhuCB subcomplex (membrane subunit FhuB and cytosolic ATPase FhuC of the ferrichrome importer), wild type (Escherichia coli, UniProt P07821 1-265; P06972 1-660, red-tris-NTA 2nd generation dye on the His-tag (in the MST experiments)); experiment: MST; 40 nM FhuCB in detergent, His-tag labelled with red-tris-NTA 2nd generation dye; serial dilution of 1.6 μM FhuD with substrate ferrichrome; without ATP-Mg; Monolith NT.115pico, 20% LED power, medium MST power; settings: both partners purified
T1 construct: cloned from the genome with the operon; a thrombin site stands between the His-tag and FhuC; Made from FhuCB-pET15b (FhuD gene deleted from FhuCDB-pET15b); The copy numbers (two FhuC, one FhuB) are told for the FhuCDB structure; In the gel filtration experiment the same chains came from the FhuCDB construct, co-expressed with FhuD; also called Fhu importer; wild-type FhuCB; source: E. coli …
T1 sequence (looked up) 1: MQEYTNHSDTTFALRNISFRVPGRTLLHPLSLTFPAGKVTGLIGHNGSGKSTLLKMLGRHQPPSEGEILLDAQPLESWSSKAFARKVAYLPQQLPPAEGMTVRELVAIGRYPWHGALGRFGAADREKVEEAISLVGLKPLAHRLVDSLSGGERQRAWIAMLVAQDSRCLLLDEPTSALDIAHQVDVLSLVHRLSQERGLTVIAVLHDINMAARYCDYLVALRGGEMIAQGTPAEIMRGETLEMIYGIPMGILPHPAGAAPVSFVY
T1 sequence (looked up) 2: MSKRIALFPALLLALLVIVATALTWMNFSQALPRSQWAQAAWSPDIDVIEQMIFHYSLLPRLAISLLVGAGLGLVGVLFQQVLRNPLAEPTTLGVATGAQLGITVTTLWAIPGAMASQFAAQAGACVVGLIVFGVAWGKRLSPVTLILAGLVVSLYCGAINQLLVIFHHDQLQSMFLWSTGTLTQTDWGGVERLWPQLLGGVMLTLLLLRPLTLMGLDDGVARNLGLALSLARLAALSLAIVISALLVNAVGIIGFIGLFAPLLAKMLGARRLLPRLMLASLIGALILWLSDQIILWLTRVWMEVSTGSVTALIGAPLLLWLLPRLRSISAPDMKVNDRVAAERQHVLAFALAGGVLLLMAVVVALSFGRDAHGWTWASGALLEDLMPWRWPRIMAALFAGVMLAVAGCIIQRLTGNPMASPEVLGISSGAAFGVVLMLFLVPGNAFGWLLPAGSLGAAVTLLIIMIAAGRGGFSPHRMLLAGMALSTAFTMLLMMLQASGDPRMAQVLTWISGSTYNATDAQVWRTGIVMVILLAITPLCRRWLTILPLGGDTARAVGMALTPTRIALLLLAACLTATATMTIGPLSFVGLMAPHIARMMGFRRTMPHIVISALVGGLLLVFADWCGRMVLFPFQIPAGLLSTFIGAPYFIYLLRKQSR

[5] = biological target: T1, FhuCB subcomplex (membrane subunit FhuB …); experiment: MST; 40 nM FhuCB in detergent, His-tag labelled with red-tris-NTA 2nd generation dye; serial dilution of 1.6 μM FhuD with substrate ferrichrome; with ATP; Monolith NT.115pico, 20% LED power, medium MST power; settings: both partners purified

Sequence of BtuF (Escherichia coli) (P37028 23-266): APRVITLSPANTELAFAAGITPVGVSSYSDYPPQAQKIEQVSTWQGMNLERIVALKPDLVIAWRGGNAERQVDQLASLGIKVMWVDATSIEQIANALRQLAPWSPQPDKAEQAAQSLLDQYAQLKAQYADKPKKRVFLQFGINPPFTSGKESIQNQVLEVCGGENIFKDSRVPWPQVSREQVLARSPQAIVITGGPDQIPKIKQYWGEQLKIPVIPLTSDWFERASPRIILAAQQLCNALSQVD

## BtuCD (from UniProt P06609)
[1]
  Kd: 0.00012 nM
[2]
  Kd: 21.1 nM

B1: FhuCB subcomplex (Escherichia coli K-12) (protein)
chain: MQEYTNHSDTTFALRNISFRVPGRTLLHPLSLTFPAGKVTGLIGHNGSGKSTLLKMLGRHQPPSEGEILLDAQPLESWSSKAFARKVAYLPQQLPPAEGMTVRELVAIGRYPWHGALGRFGAADREKVEEAISLVGLKPLAHRLVDSLSGGERQRAWIAMLVAQDSRCLLLDEPTSALDIAHQVDVLSLVHRLSQERGLTVIAVLHDINMAARYCDYLVALRGGEMIAQGTPAEIMRGETLEMIYGIPMGILPHPAGAAPVSFVY
notes: full-length FhuB and FhuC without FhuD; N-terminal His-tag and thrombin site on FhuC; pET15b, E. coli BL21(DE3) C43; purified in LMNG, reconstituted in E. coli polar lipid proteoliposomes; with Iron(3+)-hydroxamate import system permease protein FhuB
[3]; Michaelis-Menten fit with Hill coefficient (cooperative), no FhuD
  Km: 690 ± 80 µM

B2: FhuCB + FhuD (ATPase assay) (Escherichia coli K-12) (protein)
chain: MQEYTNHSDTTFALRNISFRVPGRTLLHPLSLTFPAGKVTGLIGHNGSGKSTLLKMLGRHQPPSEGEILLDAQPLESWSSKAFARKVAYLPQQLPPAEGMTVRELVAIGRYPWHGALGRFGAADREKVEEAISLVGLKPLAHRLVDSLSGGERQRAWIAMLVAQDSRCLLLDEPTSALDIAHQVDVLSLVHRLSQERGLTVIAVLHDINMAARYCDYLVALRGGEMIAQGTPAEIMRGETLEMIYGIPMGILPHPAGAAPVSFVY
notes: FhuCB (N-terminal His-tag and thrombin site on FhuC) in proteoliposomes with purified FhuD enclosed; with Iron(3+)-hydroxamate import system permease protein FhuB
[3]; Michaelis-Menten fit with Hill coefficient, 1 μM FhuD enclosed, no ferrichrome
  Km: 740 ± 50 µM

B3: FhuD, periplasmic substrate-binding protein, expressed alone (natural protein, Escherichia coli, UniProt P07822 31-296, looked up)
chain: AAIDPNRIVALEWLPVELLLALGIVPYGVADTINYRLWVSEPPLPDSVIDVGLRTEPNLELLTEMKPSFMVWSAGYGPSPEMLARIAPGRGFNFSDGKQPLAMARKSLTEMADLLNLQSAAETHLAQYEDFIRSMKPRFVKRGARPLLLTTLIDPRHMLVFGPNSLFQEILDEYGIPNAWQGETNFWGSTAVSIDRLAAYKDVDVLCFDHDNSKDMDALMATPLWQAMPFVRAGRFQRVPAVWFYGATLSAMHFVRVLDNAIGGKA
notes: the gene was amplified and cloned into pET15b; Used without substrate and loaded with the small molecule ferrichrome (told apart by the assays); also called SBP; ferrichrome-loaded FhuD
[4]
  Kd: ~12.2 nM
[5]
  Kd: ~1.03 nM
